Assay results as given in patent US20130052191A1 (Sanofi, published 2013).

Tests used:
[1] = biological target: α2β1 integrin (VLA-2) on HT1080 cells (UniProt P17301 30-1181; P05556 21-798); assay: cell-based or functional assay
[2] = biological target: complement component C1q (in baby rabbit complement) (rabbit); assay: cell-based or functional assay

Sequence of α2β1 integrin (VLA-2) on HT1080 cells (P17301 30-1181, chain 1 of 2): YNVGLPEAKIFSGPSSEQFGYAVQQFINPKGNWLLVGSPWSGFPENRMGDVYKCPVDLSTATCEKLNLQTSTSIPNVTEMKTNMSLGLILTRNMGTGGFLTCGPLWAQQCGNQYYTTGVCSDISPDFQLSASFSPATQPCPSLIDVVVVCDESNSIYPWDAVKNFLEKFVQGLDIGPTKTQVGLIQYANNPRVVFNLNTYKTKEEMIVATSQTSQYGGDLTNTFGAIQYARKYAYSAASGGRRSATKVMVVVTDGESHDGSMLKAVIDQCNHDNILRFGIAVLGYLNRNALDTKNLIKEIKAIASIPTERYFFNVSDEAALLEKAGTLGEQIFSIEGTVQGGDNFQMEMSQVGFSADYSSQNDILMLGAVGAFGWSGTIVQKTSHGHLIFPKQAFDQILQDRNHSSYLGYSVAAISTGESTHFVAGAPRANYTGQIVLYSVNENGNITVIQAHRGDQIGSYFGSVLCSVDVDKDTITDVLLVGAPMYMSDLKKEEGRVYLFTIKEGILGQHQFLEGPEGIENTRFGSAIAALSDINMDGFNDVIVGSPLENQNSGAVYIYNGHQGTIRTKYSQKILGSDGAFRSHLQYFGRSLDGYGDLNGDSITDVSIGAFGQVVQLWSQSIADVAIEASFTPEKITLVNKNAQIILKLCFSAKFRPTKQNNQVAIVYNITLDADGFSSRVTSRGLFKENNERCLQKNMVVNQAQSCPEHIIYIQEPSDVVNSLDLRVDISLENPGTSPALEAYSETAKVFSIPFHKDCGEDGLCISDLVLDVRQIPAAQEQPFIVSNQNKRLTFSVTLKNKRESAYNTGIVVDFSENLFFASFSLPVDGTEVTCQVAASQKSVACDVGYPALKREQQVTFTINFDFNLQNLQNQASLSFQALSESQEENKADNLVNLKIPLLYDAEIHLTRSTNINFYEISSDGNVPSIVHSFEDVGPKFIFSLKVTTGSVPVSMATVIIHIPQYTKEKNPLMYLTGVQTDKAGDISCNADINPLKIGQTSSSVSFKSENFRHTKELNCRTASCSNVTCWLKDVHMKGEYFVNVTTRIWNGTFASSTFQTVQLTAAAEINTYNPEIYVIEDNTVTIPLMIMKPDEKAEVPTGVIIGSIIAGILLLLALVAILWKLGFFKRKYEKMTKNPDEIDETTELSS
Sequence of α2β1 integrin (VLA-2) on HT1080 cells (P05556 21-798, chain 2 of 2): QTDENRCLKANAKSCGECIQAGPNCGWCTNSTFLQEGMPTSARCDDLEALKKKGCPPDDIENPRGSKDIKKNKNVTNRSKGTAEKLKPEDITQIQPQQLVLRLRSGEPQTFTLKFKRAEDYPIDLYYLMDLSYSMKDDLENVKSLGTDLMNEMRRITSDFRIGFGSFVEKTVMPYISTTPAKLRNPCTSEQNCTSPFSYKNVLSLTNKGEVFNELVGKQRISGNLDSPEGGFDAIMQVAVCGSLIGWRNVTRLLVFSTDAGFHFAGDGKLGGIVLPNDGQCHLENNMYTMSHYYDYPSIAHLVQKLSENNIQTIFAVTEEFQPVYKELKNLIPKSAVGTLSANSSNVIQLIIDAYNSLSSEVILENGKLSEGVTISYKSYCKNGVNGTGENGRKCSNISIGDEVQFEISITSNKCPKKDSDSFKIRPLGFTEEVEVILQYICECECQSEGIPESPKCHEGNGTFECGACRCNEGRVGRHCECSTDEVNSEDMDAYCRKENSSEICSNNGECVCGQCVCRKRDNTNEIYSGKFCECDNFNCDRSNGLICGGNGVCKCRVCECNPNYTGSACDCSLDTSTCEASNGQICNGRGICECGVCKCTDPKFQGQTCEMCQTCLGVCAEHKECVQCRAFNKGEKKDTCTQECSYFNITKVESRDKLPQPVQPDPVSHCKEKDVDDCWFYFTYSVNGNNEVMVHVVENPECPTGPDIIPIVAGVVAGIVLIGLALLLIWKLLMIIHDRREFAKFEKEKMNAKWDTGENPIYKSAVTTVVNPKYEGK

ADCC fold increase (LDH release, HT1080 target cells with human PBMC, antibody 0.1 µg/ml) [1] | CDC fold increase (LDH release, HT1080 cells, baby rabbit complement, antibody 1 µg/ml) [2] | CDC fold increase over the parental anti-VLA-2 IgG4 antibody (LDH release, HT1080 cells, baby rabbit complement, antibody 1 µg/ml) [2] | Binder
2 fold | ≥ 6.6 fold |  | anti-VLA-2 IgG1-S298A/S324N (antibody) heavy: not shown light: DFVMTQSPAFLSVTPGEKVTITCSAQSSVNYIHWYQQKPDQAPKKLIYDTSKLASGVPSRFSGSGSGTDYTFTISSLEAEDAATYYCQQWTTNPLTFGQGTKVEIKRTVAAPSVFIFPPSDEQLKSGTASVVCLLNNFYPREAKVQWKVDNALQSGNSQESVTEQDSKDSTYSLSSTLTLSKADYEKHKVYACEVTHQGLSSPVTKSFNRGEC
 | ≥ 8.6 fold |  | anti-VLA-2 IgG-3133 (antibody) heavy: QVQLQESGPGLVKPSETLSLTCTVSGFSLTNYGIHWIRQPPGKGLEWLGVIWARGFTNYNSALMSRLTISKDNSKNQVSLKLSSVTAADTAVYYCARANDGVYYAMDYWGQGTLVTVSSASTKGPSVFPLAPCSRSTSGGTAALGCLVKDYFPEPVTVSWNSGALTSGVHTFPAVLQSSGLYSLSSVVTVPSSSLGTQTYTCNVNHKPSNTKVDKRVEPKSCDKTHTCPPCPAPELLGGPSVFLFPPKPKDTLMISRTPEVTCVVVDVSHEDPEVQFKWYVDGVEVHNAKTKPREEQYNSTFRVVSVLTVLHQDWLNGKEYKCKVSNKALPAPIEKTISKTKGQPREPQVYTLPPSREEMTKNQVSLTCLVKGFYPSDIAVEWESSGQPENNYNTTPPMLDSDGSFFLYSKLTVDKSRWQQGNIFSCSVMHEALHNRFTQKSLSLSPGK light: DFVMTQSPAFLSVTPGEKVTITCSAQSSVNYIHWYQQKPDQAPKKLIYDTSKLASGVPSRFSGSGSGTDYTFTISSLEAEDAATYYCQQWTTNPLTFGQGTKVEIKRTVAAPSVFIFPPSDEQLKSGTASVVCLLNNFYPREAKVQWKVDNALQSGNSQESVTEQDSKDSTYSLSSTLTLSKADYEKHKVYACEVTHQGLSSPVTKSFNRGEC
1.7 fold | ≥ 9 fold |  | anti-VLA-2 IgG1-E269D/S298A/S324N (antibody) heavy: QVQLQESGPGLVKPSETLSLTCTVSGFSLTNYGIHWIRQPPGKGLEWLGVIWARGFTNYNSALMSRLTISKDNSKNQVSLKLSSVTAADTAVYYCARANDGVYYAMDYWGQGTLVTVSSASTKGPSVFPLAPSSKSTSGGTAALGCLVKDYFPEPVTVSWNSGALTSGVHTFPAVLQSSGLYSLSSVVTVPSSSLGTQTYICNVNHKPSNTKVDKKVEPKSCDKTHTCPPCPAPELLGGPSVFLFPPKPKDTLMISRTPEVTCVVVDVSHDDPEVKFNWYVDGVEVHNAKTKPREEQYNATYRVVSVLTVLHQDWLNGKEYKCKVNNKALPAPIEKTISKAKGQPREPQVYTLPPSRDELTKNQVSLTCLVKGFYPSDIAVEWESNGQPENNYKTTPPVLDSDGSFFLYSKLTVDKSRWQQGNVFSCSVMHEALHNHYTQKSLSLSPGK light: DFVMTQSPAFLSVTPGEKVTITCSAQSSVNYIHWYQQKPDQAPKKLIYDTSKLASGVPSRFSGSGSGTDYTFTISSLEAEDAATYYCQQWTTNPLTFGQGTKVEIKRTVAAPSVFIFPPSDEQLKSGTASVVCLLNNFYPREAKVQWKVDNALQSGNSQESVTEQDSKDSTYSLSSTLTLSKADYEKHKVYACEVTHQGLSSPVTKSFNRGEC
 |  | ≥ 9.6 fold | anti-VLA-2 IgG3 (antibody) heavy: QVQLQESGPGLVKPSETLSLTCTVSGFSLTNYGIHWIRQPPGKGLEWLGVIWARGFTNYNSALMSRLTISKDNSKNQVSLKLSSVTAADTAVYYCARANDGVYYAMDYWGQGTLVTVSSASTKGPSVFPLAPCSRSTSGGTAALGCLVKDYFPEPVTVSWNSGALTSGVHTFPAVLQSSGLYSLSSVVTVPSSSLGTQTYTCNVNHKPSNTKVDKRVELKTPLGDTTHTCPRCPEPKSCDTPPPCPRCPEPKSCDTPPPCPRCPEPKSCDTPPPCPRCPAPELLGGPSVFLFPPKPKDTLMISRTPEVTCVVVDVSHEDPEVQFKWYVDGVEVHNAKTKPREEQYNSTFRVVSVLTVLHQDWLNGKEYKCKVSNKALPAPIEKTISKTKGQPREPQVYTLPPSREEMTKNQVSLTCLVKGFYPSDIAVEWESSGQPENNYNTTPPMLDSDGSFFLYSKLTVDKSRWQQGNIFSCSVMHEALHNRFTQKSLSLSPGK light: DFVMTQSPAFLSVTPGEKVTITCSAQSSVNYIHWYQQKPDQAPKKLIYDTSKLASGVPSRFSGSGSGTDYTFTISSLEAEDAATYYCQQWTTNPLTFGQGTKVEIKRTVAAPSVFIFPPSDEQLKSGTASVVCLLNNFYPREAKVQWKVDNALQSGNSQESVTEQDSKDSTYSLSSTLTLSKADYEKHKVYACEVTHQGLSSPVTKSFNRGEC
 | ≥ 6.4 fold |  | anti-VLA-2 IgG1-S324N (antibody) heavy: not shown light: DFVMTQSPAFLSVTPGEKVTITCSAQSSVNYIHWYQQKPDQAPKKLIYDTSKLASGVPSRFSGSGSGTDYTFTISSLEAEDAATYYCQQWTTNPLTFGQGTKVEIKRTVAAPSVFIFPPSDEQLKSGTASVVCLLNNFYPREAKVQWKVDNALQSGNSQESVTEQDSKDSTYSLSSTLTLSKADYEKHKVYACEVTHQGLSSPVTKSFNRGEC
 | ≥ 5.6 fold |  | anti-VLA-2 IgG-1133 (antibody) heavy: QVQLQESGPGLVKPSETLSLTCTVSGFSLTNYGIHWIRQPPGKGLEWLGVIWARGFTNYNSALMSRLTISKDNSKNQVSLKLSSVTAADTAVYYCARANDGVYYAMDYWGQGTLVTVSSASTKGPSVFPLAPSSKSTSGGTAALGCLVKDYFPEPVTVSWNSGALTSGVHTFPAVLQSSGLYSLSSVVTVPSSSLGTQTYICNVNHKPSNTKVDKKVEPKSCDKTHTCPPCPAPELLGGPSVFLFPPKPKDTLMISRTPEVTCVVVDVSHEDPEVQFKWYVDGVEVHNAKTKPREEQYNSTFRVVSVLTVLHQDWLNGKEYKCKVSNKALPAPIEKTISKTKGQPREPQVYTLPPSREEMTKNQVSLTCLVKGFYPSDIAVEWESSGQPENNYNTTPPMLDSDGSFFLYSKLTVDKSRWQQGNIFSCSVMHEALHNRFTQKSLSLSPGK light: DFVMTQSPAFLSVTPGEKVTITCSAQSSVNYIHWYQQKPDQAPKKLIYDTSKLASGVPSRFSGSGSGTDYTFTISSLEAEDAATYYCQQWTTNPLTFGQGTKVEIKRTVAAPSVFIFPPSDEQLKSGTASVVCLLNNFYPREAKVQWKVDNALQSGNSQESVTEQDSKDSTYSLSSTLTLSKADYEKHKVYACEVTHQGLSSPVTKSFNRGEC
1.7 fold |  |  | anti-VLA-2 IgG1 (antibody) heavy: not shown light: DFVMTQSPAFLSVTPGEKVTITCSAQSSVNYIHWYQQKPDQAPKKLIYDTSKLASGVPSRFSGSGSGTDYTFTISSLEAEDAATYYCQQWTTNPLTFGQGTKVEIKRTVAAPSVFIFPPSDEQLKSGTASVVCLLNNFYPREAKVQWKVDNALQSGNSQESVTEQDSKDSTYSLSSTLTLSKADYEKHKVYACEVTHQGLSSPVTKSFNRGEC
1.8 fold |  |  | anti-VLA-2 IgG1-S298A (antibody) heavy: not shown light: DFVMTQSPAFLSVTPGEKVTITCSAQSSVNYIHWYQQKPDQAPKKLIYDTSKLASGVPSRFSGSGSGTDYTFTISSLEAEDAATYYCQQWTTNPLTFGQGTKVEIKRTVAAPSVFIFPPSDEQLKSGTASVVCLLNNFYPREAKVQWKVDNALQSGNSQESVTEQDSKDSTYSLSSTLTLSKADYEKHKVYACEVTHQGLSSPVTKSFNRGEC
1.5 fold |  |  | anti-VLA-2 IgG1-E269D (antibody) heavy: not shown light: DFVMTQSPAFLSVTPGEKVTITCSAQSSVNYIHWYQQKPDQAPKKLIYDTSKLASGVPSRFSGSGSGTDYTFTISSLEAEDAATYYCQQWTTNPLTFGQGTKVEIKRTVAAPSVFIFPPSDEQLKSGTASVVCLLNNFYPREAKVQWKVDNALQSGNSQESVTEQDSKDSTYSLSSTLTLSKADYEKHKVYACEVTHQGLSSPVTKSFNRGEC
